PMC3581488
Changes are numbered by the printed parent chain. In names and notes the source's numbering stands.

T1: Purified bovine tubulin, Q6B856
T1 chain: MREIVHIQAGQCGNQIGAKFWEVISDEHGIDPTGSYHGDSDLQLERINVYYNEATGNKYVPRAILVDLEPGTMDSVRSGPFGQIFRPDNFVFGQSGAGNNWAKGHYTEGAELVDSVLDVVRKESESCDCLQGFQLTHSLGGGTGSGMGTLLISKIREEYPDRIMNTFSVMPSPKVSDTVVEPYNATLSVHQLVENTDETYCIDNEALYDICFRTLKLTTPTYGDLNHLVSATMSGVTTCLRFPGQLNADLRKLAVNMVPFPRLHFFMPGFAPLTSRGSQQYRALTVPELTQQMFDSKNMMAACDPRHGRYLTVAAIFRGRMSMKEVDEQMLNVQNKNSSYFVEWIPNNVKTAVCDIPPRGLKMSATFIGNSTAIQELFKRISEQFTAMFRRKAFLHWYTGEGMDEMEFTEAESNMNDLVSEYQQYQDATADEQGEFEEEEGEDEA

B1: GST fusion protein encoding the C-terminus (CT) of the angiotensin II type 1 receptor (AT1R) K307E (protein)
chain: LGEKFKKYFLQLLKYIPPKAKSHSSLSTKMSTLSYRPSDNMSSSAKKPASCFEVE
B2: GST fusion protein encoding the C-terminus (CT) of the angiotensin II type 1 receptor (AT1R) K307E; K308E; K310E; K311E (protein)
chain: B1 chain with K4E, K6E, K7E
B3: GST fusion protein encoding the C-terminus (CT) of the angiotensin II type 1 receptor (AT1R) K308E (protein)
chain: B1 chain with E3K, K4E

Key:
Assay in all cases: GST fusion protein pulldown assay, quantified immunoblot (α-tubulin)
[1] = target: Purified bovine tubulin (UniProt Q6B856); details: parent: est. 100, read off a plot
[2] = target: T1, Purified bovine tubulin, Q6B856; details: chain shown with the change
[3] = target: Tubulin from rat brain extracts, P68370;Q3KRE8; details: chain shown with the change; rat brain cytosolic extracts; parent: est. 100; read off a plot
[4] = parent: est. 100, read off a plot

Molecule	percent of parent [1]	percent of parent [2, 4]	percent of parent ([2]; purified tubulin, parent: est. 100, read off a plot)	percent of parent [3]
GST fusion protein encoding the C-terminus (CT) of the angiotensin II type 1 receptor (AT1R) K310E	20 % of AT1R CT			
GST fusion protein encoding the C-terminus (CT) of the angiotensin II type 1 receptor (AT1R) K311E	52 % of AT1R CT			
B1		83 % of AT1R CT		
B2		5 % of AT1R CT	4 % of AT1R CT	12 % of AT1R CT
B3		100 % of AT1R CT		
